{"source": "patent US20190127480A1", "key": {"[1]": {"biological_target": "human CD3 expressed on cells (Jurkat cells; human T-cells of PBMC) (human) (UniProt P09693)", "sequence (chain, as listed by the source, chain 1 of 4)": "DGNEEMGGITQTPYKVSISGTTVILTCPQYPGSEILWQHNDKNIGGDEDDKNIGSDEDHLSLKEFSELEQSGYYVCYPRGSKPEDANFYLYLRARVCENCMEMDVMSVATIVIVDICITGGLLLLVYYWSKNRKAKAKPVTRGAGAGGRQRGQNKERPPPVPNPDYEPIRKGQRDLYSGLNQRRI", "sequence (chain, as listed by the source, chain 2 of 4)": "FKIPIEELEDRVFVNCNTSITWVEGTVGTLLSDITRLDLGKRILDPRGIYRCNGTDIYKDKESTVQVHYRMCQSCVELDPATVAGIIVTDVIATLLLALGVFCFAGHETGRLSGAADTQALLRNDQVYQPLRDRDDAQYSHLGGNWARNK", "sequence (P09693 23-182, chain 3 of 4)": "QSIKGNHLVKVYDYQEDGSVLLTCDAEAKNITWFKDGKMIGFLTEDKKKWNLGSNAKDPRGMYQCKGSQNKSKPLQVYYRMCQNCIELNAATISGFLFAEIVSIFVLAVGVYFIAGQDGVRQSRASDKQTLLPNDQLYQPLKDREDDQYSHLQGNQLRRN", "sequence (P20963 22-164, chain 4 of 4)": "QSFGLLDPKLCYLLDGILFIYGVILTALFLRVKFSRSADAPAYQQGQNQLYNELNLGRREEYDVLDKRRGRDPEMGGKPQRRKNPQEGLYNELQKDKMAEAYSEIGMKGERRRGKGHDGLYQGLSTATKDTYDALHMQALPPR", "experiment": "cell-based or functional assay"}, "[2]": {"biological_target": "human CD3 expressed on cells (Jurkat cells; human T-cells of PBMC) (human) (UniProt P09693)", "experiment": "FACS titration on Jurkat cells (CD3+ human T-cell line)"}, "[3]": {"biological_target": "cynomolgus monkey CD3 expressed on monkey T-cells (PBMCs) (cynomolgus monkey) (UniProt Q95LI5)", "sequence (Q95LI5 22-198, chain 1 of 2)": "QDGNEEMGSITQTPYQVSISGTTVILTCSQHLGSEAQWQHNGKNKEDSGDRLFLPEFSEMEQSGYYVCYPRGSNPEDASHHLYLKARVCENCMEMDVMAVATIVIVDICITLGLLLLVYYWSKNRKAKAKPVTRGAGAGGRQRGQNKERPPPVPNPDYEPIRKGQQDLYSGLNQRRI", "sequence (Q95LI8 22-171, chain 2 of 2, further chain)": "as the sequence (chain, as listed by the source, chain 2 of 4) above, with I5V, N15K, I20V, S32T, D33N, I34N, T64A, S74N, V83L, H141R counted along it", "experiment": "cell-based or functional assay"}, "[4]": {"biological_target": "cynomolgus monkey CD3 expressed on monkey T-cells (PBMCs) (cynomolgus monkey) (UniProt Q95LI5)", "experiment": "FACS titration on monkey PBMCs, gated on CD2+CD4+ T cells"}}, "data": [{"substance": "Isotype Ctrl (irrelevant isotype matched antibody, hybridoma mAb table)", "values": [{"measurement": "U937 Cytotoxicity Human T-cells", "setting": "[1]", "value": 0, "unit": "pM"}]}, {"substance": "Isotype Ctrl (irrelevant isotype matched antibody, human Fc mAb tables)", "values": [{"measurement": "U937 Cytotoxicity Human T-cells", "setting": "[1]", "value": 0, "unit": "pM"}]}, {"substance": "Isotype Ctrl (irrelevant isotype matched antibody, monovalent 1-arm mAb tables)", "values": [{"measurement": "U937 Cytotoxicity Human T-cells", "setting": "[1]", "value": 0, "unit": "pM"}]}, {"substance": "OKT-3, mouse monoclonal antibody against human T-cell surface antigens (ATCC CRL-8001)", "values": [{"measurement": "EC50 [M] hPBMC Proliferation", "setting": "[1]", "value": "3.3e-13", "unit": "M"}, {"measurement": "U937 Cytotoxicity Human T-cells", "setting": "[1]", "value": 2.35, "unit": "pM"}, {"measurement": "EC50", "setting": "[2]", "value": 0.196, "unit": "nM"}]}, {"substance": "SP34, commercially available mouse monoclonal antibody reactive against the epsilon chain of the T3 complex on human T lymphocyte cells", "values": [{"measurement": "EC50 [M] mfPBMC Proliferation", "setting": "[3]", "value": "1.71e-12", "unit": "M"}, {"measurement": "EC50", "setting": "[4]", "value": 0.0703, "unit": "nM"}]}]}
